The results in this text go back to publication doi:10.1101/2022.04.07.487047 (bioRxiv, 2022).

Numbering of substitutions follows the chain as printed. Names and notes keep the numbering of the source.

T1: CydD, subunit of the heterodimeric ABC transporter CydDC (Escherichia coli, UniProt P29018 1-588)
T1 sequence: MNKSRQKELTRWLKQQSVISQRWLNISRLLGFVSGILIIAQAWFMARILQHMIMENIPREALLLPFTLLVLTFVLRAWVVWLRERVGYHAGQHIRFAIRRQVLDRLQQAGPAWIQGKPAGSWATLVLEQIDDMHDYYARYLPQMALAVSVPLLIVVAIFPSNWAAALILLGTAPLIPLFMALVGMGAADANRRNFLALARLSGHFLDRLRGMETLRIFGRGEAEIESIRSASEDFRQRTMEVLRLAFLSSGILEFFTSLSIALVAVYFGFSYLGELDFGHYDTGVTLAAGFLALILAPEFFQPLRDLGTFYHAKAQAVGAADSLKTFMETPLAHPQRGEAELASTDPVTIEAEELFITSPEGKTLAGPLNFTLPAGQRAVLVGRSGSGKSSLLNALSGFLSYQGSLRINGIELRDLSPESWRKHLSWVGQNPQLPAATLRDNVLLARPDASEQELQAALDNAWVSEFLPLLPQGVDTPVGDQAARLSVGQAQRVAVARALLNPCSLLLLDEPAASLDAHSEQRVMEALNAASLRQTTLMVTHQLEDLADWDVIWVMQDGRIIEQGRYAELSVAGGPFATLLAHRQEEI

B1: CydC, subunit of the heterodimeric ABC transporter CydDC (wild type) (natural protein, Escherichia coli)
chain: MRALLPYLALYKRHKWMLSLGIVLAIVTLLASIGLLTLSGWFLSASAVAGVAGLYSFNYMLPAAGVRGAAITRTAGRYFERLVSHDATFRVLQHLRIYTFSKLLPLSPAGLARYRQGELLNRVVADVDTLDHLYLRVISPLVGAFVVIMVVTIGLSFLDFTLAFTLGGIMLLTLFLMPPLFYRAGKSTGQNLTHLRGQYRQQLTAWLQGQAELTIFGASDRYRTQLENTEIQWLEAQRRQSELTALSQAIMLLIGALAVILMLWMASGGVGGNAQPGALIALFVFCALAAFEALAPVTGAFQHLGQVIASAVRISDLTDQKPEVTFPDTQTRVADRVSLTLRDVQFTYPEQSQQALKGISLQVNAGEHIAILGRTGCGKSTLLQQLTRAWDPQQGEILLNDSPIASLNEAALRQTISVVPQRVHLFSATLRDNLLLASPGSSDEALSEILRRVGLEKLLEDAGLNSWLGEGGRQLSGGELRRLAIARALLHDAPLVLLDEPTEGLDATTESQILELLAEMMREKTVLMVTHRLRGLSRFQQIIVMDNGQIIEQGTHAELLARQGRYYQFKQGL
B2: CydC E500Q (Walker B glutamate to glutamine mutant), subunit of CydDC^E500Q (natural protein, Escherichia coli)
chain: B1 chain with E500Q
B3: CydC H85A (histidine to alanine exchange at position 85), subunit of CydDC^H85A (natural protein, Escherichia coli)
chain: B1 chain with H85A

The assay addresses T1, CydD, subunit of the heterodimeric ABC …. Put plainly: cryo-EM structure.
Regarding B1, the binding result was “binds”.

In the case of B2, the binding result is reported as “binds”.

Regarding B3, the binding result is “binds”.
